In paper PMC11312540 (bioRxiv, 2024):

Molecular target: SH3 domain of Src (residues 83–141) with C-terminal FLAG-tag (chicken, UniProt P00523 83-141)
Test: bimane fluorescence

binding result: binds
B1: βarr1-MC-393 V70C labeled with monobromobimane (domain or fragment, rat, UniProt P29066 1-393, looked up)
chain: MGDKGTRVFKKASPNGKLTVYLGKRDFVDHIDLVDPVDGVVLVDPEYLKERRVYVTLTAAFRYGREDLDCLGLTFRKDLFVANVQSFPPAPEDKKPLTRLQERLIKKLGEHAYPFTFEIPPNLPSSVTLQPGPEDTGKAIGVDYEVKAFVAENLEEKIHKRNSVRLVIRKVQYAPERPGPQPTAETTRQFLMSDKPLHLEASLDKEIYYHGEPISVNVHVTNNTNKTVKKIKISVRQYADIVLFNTAQYKVPVAMEEADDTVAPSSTFSKVYTLTPFLANNREKRGLALDGKLKHEDTNLASSTLLREGANREILGIIVSYKVKVKLVVSRGGLLGDLASSDVAVELPFTLMHPKPKEEPPHREVPESETPVDTNLIELDTNDDDIVFEDFAR
modifications: monobromobimane (mBr) on C70
